Measurements reported in patent publication EP1224288B1 (Pharis Biotec GmbH, dated 2006).

Experiments:
[1] = biological target: T1, chemokine receptor 5 (CCR5; AC P51681) (human, UniProt P51681 1-352); assay: radioligand competition, 125I-MIP 1-alpha tracer on CCR5
T1 construct: whole, on cells; Aequorin assays used whole cells co-expressing apoaequorin and G alpha 16

chemokine receptor CCR3 [2] = biological target: T2, chemokine receptor CCR3 (human, UniProt P51677 1-355); assay: radioligand competition, 0.1 nM 125I-Eotaxin tracer, membranes of CHO-K1 cells expressing CCR3
T2 construct: whole, on cells; Aequorin assays used whole cells
T2 sequence (looked up): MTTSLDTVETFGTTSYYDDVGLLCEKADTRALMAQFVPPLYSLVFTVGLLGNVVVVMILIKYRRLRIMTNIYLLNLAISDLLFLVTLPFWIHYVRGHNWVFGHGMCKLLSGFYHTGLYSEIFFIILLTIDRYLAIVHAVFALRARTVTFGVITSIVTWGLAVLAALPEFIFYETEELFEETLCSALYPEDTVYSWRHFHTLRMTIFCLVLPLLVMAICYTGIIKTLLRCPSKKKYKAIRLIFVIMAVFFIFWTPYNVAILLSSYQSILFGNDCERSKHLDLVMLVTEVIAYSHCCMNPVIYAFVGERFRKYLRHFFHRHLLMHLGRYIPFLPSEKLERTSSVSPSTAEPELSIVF

chemokine receptor CCR1 [3] = biological target: T3, chemokine receptor CCR1 (human, UniProt P32246 1-355); assay: radioligand competition, 0.1 nM 125I-Rantes tracer, membranes of CHO-K1 cells expressing CCR1
T3 construct: whole, on cells
T3 sequence (looked up): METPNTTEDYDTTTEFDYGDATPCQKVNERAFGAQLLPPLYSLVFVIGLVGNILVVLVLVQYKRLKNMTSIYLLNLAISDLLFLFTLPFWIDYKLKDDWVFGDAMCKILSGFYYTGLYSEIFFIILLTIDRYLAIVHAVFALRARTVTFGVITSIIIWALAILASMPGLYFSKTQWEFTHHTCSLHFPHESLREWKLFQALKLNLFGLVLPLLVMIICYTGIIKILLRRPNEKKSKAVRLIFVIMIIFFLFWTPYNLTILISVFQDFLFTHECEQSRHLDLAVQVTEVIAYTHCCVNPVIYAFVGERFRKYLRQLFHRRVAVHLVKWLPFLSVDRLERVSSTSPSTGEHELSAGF

chemokine receptor CCR3 [4] = biological target: T2, chemokine receptor CCR3; assay: radioligand competition, 125I-Eotaxin tracer on CCR3
chemokine receptor CCR1 [5] = biological target: T3, chemokine receptor CCR1; assay: radioligand competition, 125I-Rantes tracer on CCR1
[6] = biological target: T1, chemokine receptor 5 (CCR5; AC P51681); assay: radioligand competition, 0.1 nM 125I-MIP 1-alpha tracer, membranes of CHO-K1 cells expressing CCR5
chemokine receptor CCR1 [7] = biological target: T3, chemokine receptor CCR1; assay: cell-based or functional assay
[8] = biological target: T1, chemokine receptor 5 (CCR5; AC P51681); assay: cell-based or functional assay
chemokine receptor CCR3 [9] = biological target: T2, chemokine receptor CCR3; assay: cell-based or functional assay
chemokine receptor CCR1 [10] = biological target: T3, chemokine receptor CCR1; assay: radioligand competition binding on CCR1

T1 sequence (P51681 whole entry, one chain of several): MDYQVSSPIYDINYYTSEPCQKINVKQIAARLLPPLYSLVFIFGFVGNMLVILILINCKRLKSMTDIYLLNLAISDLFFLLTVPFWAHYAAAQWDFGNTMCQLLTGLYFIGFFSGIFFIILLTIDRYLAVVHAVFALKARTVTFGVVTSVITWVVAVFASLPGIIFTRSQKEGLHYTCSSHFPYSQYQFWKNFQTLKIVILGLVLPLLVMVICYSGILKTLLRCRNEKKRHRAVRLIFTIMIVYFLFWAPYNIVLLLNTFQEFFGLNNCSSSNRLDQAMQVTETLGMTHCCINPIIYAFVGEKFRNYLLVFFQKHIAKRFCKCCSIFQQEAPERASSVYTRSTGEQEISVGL

B1: processed chemokine PHC-1 (HCC-1, residues 9-74) (ligand)
chain: GPYHPSECCFTYTTYKIPRQRIMDYYETNSQCSKPGIVFITKRGHSVCTNPSDKWVQDYIKDMKEN
notes: also called HCC-1[9-74]
- Ki [1]: 0.04 nM
- IC50 (chemokine receptor CCR3 [2]): 78 nM
- IC50 (chemokine receptor CCR1 [3]): 2.3 nM
- Ki (chemokine receptor CCR3 [4]): 2.7 nM
- Ki (chemokine receptor CCR1 [5]): 0.023 nM
- IC50 [6]: 0.04 nM
- Aequorin assay, EC50 (chemokine receptor CCR1 [7]): 2.8 nM
- Aequorin assay, activation of CCR5 transfected CHO-K1 cells, EC50 [8]: 4.8 nM
- Aequorin assay, EC50 (chemokine receptor CCR3 [9]): 78 nM

B2: RANTES (ligand, UniProt P13501 24-91, looked up)
chain: SPYSSDTTPCCFAYIARPLPRAHIKEYFYTSGKCSNPAVVFVTRKNRQVCANPEKKWVREYINSLEMS
modifications: also: 125I-labelled as tracer, position not given here
- Aequorin assay, EC50 (chemokine receptor CCR1 [7]): 6.3 nM
- Aequorin assay, activation of CCR5 transfected CHO-K1 cells, EC50 [8]: 2.4 nM

B3: full size HCC-1 (HCC-1, residues 1-74) (ligand)
chain: TKTESSSRGPYHPSECCFTYTTYKIPRQRIMDYYETNSQCSKPGIVFITKRGHSVCTNPSDKWVQDYIKDMKEN
notes: also called full-length HCC-1; HCC-1, 1-74
- Ki (chemokine receptor CCR1 [10]): 100 nM

B4: MIP 1-alpha (ligand, UniProt P10147 24-92, looked up)
chain: SLAADTPTACCFSYTSRQIPQNFIADYFETSSQCSKPGVIFLTKRSRQVCADPSEEWVQKYVSDLELSA
modifications: also: 125I-labelled as tracer, position not given here
- Aequorin assay, activation of CCR5 transfected CHO-K1 cells, EC50 [8]: 3.3 nM
